Reference: the supplement of paper PMC10065799, “High-throughput profiling of sequence recognition by tyrosine kinases and SH2 domains using bacterial peptide display” (eLife, 2023)

Assays:
Fes = Fes (UniProt P07332); assay: phosphorylation enrichment, bacterial display (enrichment ratio); higher = better substrate or ligand; peptides without Tyr show the background
Hck = Hck (UniProt P08631); assay: as above
Jak2 = Jak2 (UniProt O60674); assay: as above
AncSZ = assay: as above
c-Abl (mouse) = assay: as above
FGFR1 = FGFR1 (UniProt P11362); assay: as above
Fyn = Fyn (UniProt P06241); assay: as above
Sequence of Fyn (P06241 whole entry, looked up): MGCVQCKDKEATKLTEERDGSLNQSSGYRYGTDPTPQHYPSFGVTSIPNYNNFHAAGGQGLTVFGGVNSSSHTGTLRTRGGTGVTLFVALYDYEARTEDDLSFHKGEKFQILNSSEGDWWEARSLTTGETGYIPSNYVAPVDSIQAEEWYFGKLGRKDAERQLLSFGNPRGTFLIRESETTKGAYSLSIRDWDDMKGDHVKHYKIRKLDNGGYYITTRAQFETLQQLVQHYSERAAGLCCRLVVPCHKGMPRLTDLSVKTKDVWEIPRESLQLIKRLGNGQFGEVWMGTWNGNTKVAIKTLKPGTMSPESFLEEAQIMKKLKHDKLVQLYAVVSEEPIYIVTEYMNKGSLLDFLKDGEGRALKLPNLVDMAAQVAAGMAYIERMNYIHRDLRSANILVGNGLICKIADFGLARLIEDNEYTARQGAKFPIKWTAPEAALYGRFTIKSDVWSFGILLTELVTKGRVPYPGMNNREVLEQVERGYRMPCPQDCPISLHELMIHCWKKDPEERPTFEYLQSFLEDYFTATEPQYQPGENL

EPHB1 = EPHB1 (UniProt P54762); assay: as above
c-Src = assay: as above
MERTK = MERTK (UniProt Q12866); assay: as above
EPHB2 = EPHB2 (UniProt P29323); assay: as above
Sequence of EPHB2 (P29323 whole entry, looked up): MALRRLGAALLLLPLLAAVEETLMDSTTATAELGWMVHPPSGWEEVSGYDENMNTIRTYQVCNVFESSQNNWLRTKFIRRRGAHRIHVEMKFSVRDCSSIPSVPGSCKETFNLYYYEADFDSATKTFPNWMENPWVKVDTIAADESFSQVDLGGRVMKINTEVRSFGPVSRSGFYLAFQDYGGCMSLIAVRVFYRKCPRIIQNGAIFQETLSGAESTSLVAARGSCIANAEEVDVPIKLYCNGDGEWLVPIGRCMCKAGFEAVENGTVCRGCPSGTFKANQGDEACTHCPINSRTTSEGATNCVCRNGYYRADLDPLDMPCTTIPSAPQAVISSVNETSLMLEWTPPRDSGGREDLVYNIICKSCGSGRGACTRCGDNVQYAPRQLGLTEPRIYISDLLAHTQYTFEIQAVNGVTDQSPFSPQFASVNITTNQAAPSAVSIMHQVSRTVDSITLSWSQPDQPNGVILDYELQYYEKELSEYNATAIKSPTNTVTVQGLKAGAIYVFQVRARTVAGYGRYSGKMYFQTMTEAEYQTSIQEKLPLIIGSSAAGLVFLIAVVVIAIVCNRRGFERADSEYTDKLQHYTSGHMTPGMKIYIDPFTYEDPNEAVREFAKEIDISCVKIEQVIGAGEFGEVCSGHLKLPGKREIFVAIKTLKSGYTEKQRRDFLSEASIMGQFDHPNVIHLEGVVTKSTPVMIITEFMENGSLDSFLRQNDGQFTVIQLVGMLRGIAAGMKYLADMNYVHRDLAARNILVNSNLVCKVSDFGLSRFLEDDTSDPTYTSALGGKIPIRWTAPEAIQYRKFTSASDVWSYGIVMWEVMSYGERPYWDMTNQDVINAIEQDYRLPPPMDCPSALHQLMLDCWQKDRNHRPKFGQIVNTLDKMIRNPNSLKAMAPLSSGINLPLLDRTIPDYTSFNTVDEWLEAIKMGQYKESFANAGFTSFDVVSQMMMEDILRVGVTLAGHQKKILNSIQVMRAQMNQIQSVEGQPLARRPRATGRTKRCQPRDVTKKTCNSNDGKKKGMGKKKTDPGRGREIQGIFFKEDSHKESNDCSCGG

FGFR3 = FGFR3 (UniProt P22607); assay: as above
Sequence of FGFR3 (P22607 whole entry, looked up): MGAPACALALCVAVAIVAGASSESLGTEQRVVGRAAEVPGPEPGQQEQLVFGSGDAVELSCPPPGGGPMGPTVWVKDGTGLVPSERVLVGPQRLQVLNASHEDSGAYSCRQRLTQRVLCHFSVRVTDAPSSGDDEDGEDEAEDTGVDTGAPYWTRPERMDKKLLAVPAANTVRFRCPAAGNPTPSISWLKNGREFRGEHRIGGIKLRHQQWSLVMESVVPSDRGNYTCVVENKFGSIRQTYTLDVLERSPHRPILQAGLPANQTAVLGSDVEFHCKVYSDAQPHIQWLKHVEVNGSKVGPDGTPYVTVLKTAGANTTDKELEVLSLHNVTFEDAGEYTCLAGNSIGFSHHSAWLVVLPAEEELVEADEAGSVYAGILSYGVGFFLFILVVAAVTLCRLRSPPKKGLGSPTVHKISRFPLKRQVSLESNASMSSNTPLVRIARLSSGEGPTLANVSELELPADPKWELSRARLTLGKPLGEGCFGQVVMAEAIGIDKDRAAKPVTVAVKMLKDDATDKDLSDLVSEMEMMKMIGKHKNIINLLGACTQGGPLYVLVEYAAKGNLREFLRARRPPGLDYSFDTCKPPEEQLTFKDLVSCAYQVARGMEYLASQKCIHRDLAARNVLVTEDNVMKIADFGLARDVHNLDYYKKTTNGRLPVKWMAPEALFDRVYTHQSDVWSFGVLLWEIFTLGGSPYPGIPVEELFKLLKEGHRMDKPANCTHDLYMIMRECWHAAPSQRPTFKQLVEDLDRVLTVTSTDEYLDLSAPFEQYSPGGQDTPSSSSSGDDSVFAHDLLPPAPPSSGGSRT

Fer (mouse) = assay: as above
SHP2-C SH2 = assay: SH2 binding enrichment of the phosphorylated peptide, bacterial display (enrichment ratio); higher = better substrate or ligand; peptides without Tyr show the background
Grb2 SH2 = Grb2 SH2 (UniProt P62993); assay: as above
c-Src SH2 = assay: as above
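Throughout, for SH2 binding enrichment of the phosphorylated peptide, bacterial display: peptide library displayed on the E. coli surface as eCPX fusions, selected cells deep-sequenced, score is each peptide's frequency after selection divided by its frequency in the input.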
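Throughout, for phosphorylation enrichment, bacterial display: 11-residue human phosphosite peptides and single-mutation variants displayed on the E. coli surface, counted by deep sequencing, each peptide's frequency after selection divided by its frequency in the unselected input library; frequency after pTyr selection over input frequency; kinase dosed for 20-30% of maximal phosphorylation in three min.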

Sequence of Jak2 (O60674 whole entry, looked up): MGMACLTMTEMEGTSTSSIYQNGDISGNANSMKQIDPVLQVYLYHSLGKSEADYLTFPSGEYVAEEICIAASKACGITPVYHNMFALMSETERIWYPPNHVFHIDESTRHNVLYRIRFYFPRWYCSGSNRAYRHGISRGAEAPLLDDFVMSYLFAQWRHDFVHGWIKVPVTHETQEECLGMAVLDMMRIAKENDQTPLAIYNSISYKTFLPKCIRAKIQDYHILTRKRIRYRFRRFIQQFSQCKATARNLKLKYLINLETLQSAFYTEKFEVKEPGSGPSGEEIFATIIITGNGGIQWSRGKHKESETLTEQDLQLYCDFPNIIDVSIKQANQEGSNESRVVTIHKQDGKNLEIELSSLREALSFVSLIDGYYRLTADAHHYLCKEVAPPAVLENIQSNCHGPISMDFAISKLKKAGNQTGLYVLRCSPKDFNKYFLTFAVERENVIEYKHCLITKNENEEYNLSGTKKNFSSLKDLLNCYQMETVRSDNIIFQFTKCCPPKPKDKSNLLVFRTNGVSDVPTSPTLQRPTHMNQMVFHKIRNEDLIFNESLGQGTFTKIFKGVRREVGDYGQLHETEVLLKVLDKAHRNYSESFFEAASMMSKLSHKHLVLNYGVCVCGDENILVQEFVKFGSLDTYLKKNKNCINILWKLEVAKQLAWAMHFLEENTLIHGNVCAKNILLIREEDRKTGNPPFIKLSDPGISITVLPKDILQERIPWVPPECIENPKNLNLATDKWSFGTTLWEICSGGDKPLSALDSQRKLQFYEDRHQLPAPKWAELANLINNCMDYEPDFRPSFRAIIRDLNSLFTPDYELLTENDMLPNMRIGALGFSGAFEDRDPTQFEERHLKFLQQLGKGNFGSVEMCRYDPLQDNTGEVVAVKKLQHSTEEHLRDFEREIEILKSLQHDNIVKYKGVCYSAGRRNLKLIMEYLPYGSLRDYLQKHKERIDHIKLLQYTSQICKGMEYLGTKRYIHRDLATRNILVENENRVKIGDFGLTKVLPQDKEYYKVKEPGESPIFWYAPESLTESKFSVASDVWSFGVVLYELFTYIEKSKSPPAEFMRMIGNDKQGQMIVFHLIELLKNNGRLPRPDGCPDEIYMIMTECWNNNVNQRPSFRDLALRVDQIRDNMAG
Sequence of Fes (P07332 whole entry, looked up): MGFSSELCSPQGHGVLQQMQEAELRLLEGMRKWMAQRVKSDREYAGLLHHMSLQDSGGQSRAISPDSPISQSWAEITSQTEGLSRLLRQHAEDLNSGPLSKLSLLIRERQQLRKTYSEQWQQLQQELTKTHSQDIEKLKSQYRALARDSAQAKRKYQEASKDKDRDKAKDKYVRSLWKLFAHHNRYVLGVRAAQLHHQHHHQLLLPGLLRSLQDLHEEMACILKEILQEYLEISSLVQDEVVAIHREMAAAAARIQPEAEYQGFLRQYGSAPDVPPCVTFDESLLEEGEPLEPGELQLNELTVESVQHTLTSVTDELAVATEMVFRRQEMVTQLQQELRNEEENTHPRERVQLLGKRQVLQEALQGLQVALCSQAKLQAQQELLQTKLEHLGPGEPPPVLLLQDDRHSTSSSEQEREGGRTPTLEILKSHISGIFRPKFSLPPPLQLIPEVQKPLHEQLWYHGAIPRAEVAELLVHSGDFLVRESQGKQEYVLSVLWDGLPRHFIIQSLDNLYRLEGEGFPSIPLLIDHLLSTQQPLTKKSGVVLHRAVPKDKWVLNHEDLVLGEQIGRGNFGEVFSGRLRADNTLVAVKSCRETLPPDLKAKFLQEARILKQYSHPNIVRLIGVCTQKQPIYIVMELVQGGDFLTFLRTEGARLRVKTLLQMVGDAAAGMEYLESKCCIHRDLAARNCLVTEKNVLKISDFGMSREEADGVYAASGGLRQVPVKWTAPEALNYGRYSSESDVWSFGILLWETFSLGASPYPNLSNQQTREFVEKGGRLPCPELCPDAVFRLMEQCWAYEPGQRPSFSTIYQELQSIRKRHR
Sequence of Hck (P08631 whole entry, looked up): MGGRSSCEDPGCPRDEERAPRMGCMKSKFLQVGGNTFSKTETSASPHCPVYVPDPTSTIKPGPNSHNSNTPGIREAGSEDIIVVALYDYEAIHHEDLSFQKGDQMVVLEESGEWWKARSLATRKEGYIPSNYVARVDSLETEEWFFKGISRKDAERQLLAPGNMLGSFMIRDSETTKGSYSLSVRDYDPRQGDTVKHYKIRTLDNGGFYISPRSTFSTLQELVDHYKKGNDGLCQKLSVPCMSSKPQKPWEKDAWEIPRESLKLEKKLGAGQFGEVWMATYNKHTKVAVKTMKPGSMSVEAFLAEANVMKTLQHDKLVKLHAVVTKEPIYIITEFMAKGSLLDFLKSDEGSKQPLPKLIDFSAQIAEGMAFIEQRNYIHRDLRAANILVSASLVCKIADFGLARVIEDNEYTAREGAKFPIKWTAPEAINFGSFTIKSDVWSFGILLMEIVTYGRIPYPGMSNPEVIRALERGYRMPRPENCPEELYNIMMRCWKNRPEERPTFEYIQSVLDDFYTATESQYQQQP

Sequence | SH2 binding enrichment (SHP2-C SH2) | SH2 binding enrichment (Grb2 SH2) | SH2 binding enrichment (c-Src SH2) | phosphorylation enrichment (Fes) | phosphorylation enrichment (Hck) | phosphorylation enrichment (Jak2) | phosphorylation enrichment (AncSZ) | phosphorylation enrichment (c-Abl (mouse)) | phosphorylation enrichment (FGFR1) | phosphorylation enrichment (Fyn) | phosphorylation enrichment (EPHB1) | phosphorylation enrichment (c-Src) | phosphorylation enrichment (MERTK) | phosphorylation enrichment (EPHB2) | phosphorylation enrichment (FGFR3) | phosphorylation enrichment (Fer (mouse))
LMVFEYMRHGN [NTRK1_Y591_D596N] | 1.89 | 1.65 | 1.19 | 1.44 | 0.597 | 1.54 | 0.998 | 0.912 | 0.55 | 0.664 | 0.797 | 0.539 | 0.457 | 0.692 | 0.707 | 0.466
LNPLVYTLRNA [OR4C12_Y285_V283L] | 0.893 | 1.22 | 1.02 | 1.51 | 1.81 | 1.1 | 1.05 | 1.19 | 1.01 | 2.22 | 0.712 | 3.54 | 1.21 | 1.28 | 1.04 | 0.76
LNYNEYFRDLN [HPRT1_Y198_D194N] | 0.672 | 0.985 | 0.443 | 1.6 | 0.879 | 1.57 | 1.82 | 1.01 | 1.29 | 0.996 | 1.4 | 0.518 | 0.559 | 1.12 | 1.38 | 0.878
LQEKSYIKGTS [LCTL_Y331] | 1.1 | 1.41 | 0.546 | 1.21 | 0.912 | 0.595 | 1.33 | 0.723 | 1.15 | 0.616 | 0.652 | 0.9 | 0.609 | 1.02 | 1.08 | 0.96
LQLLGHRPVYS [CHST6_Y358_Y358H] | 0.935 | 1.22 | 0.733 | 0.701 | 0.512 | 0.552 | 0.615 | 0.418 | 0.425 | 0.535 | 0.462 | 0.381 | 0.374 | 0.47 | 0.506 | 0.479
LRFEVYGGENE [STOX1_Y610_YF] | 0.842 | 0.723 | 0.536 | 1.55 | 0.5 | 1.29 | 1.15 | 0.925 | 0.621 | 0.539 | 0.56 | 0.5 | 0.454 | 0.855 | 0.774 | 0.483
LRYDVYGGENE [STOX1_Y610_E608D] | 0.675 | 0.925 | 0.875 | 3.02 | 1.41 | 2.78 | 2.74 | 2.15 | 1.09 | 1.48 | 1.82 | 1.94 | 1.18 | 1.57 | 1.29 | 1.03
LSDGPYSSPFE [EPOR_Y485_N487S_YF] | 0.473 | 0.507 | 1.02 | 0.84 | 0.684 | 0.765 | 1.37 | 0.468 | 0.781 | 0.786 | 0.631 | 0.698 | 0.527 | 0.53 | 0.715 | 0.465
LSIDRYHAIVF [NPSR1_Y147_YF] | 0.691 | 0.934 | 1.44 | 1.3 | 0.861 | 2.75 | 1.56 | 0.941 | 1.22 | 0.833 | 0.753 | 0.976 | 1.81 | 1.04 | 1.44 | 0.444
LSQAKYQIRYR [CRLF1_Y272_F268S] | 0.558 | 1.29 | 0.368 | 0.768 | 0.667 | 0.711 | 0.617 | 0.592 | 0.638 | 0.776 | 0.506 | 0.387 | 0.479 | 0.764 | 0.603 | 0.467

More lines, main results first:

SH2 binding enrichment (SHP2-C SH2) | SH2 binding enrichment (Grb2 SH2) | SH2 binding enrichment (c-Src SH2) | Sequence | phosphorylation enrichment (Fes) | phosphorylation enrichment (Hck) | phosphorylation enrichment (Jak2) | phosphorylation enrichment (AncSZ) | phosphorylation enrichment (c-Abl (mouse)) | phosphorylation enrichment (FGFR1) | phosphorylation enrichment (Fyn) | phosphorylation enrichment (EPHB1) | phosphorylation enrichment (c-Src) | phosphorylation enrichment (MERTK) | phosphorylation enrichment (EPHB2) | phosphorylation enrichment (FGFR3) | phosphorylation enrichment (Fer (mouse))
1.64 | 0.9 | 1.32 | LNTFHYAGVSA [POLR2A_Y1109] | 0.722 | 0.45 | 0.584 | 0.656 | 0.552 | 0.407 | 0.419 | 0.434 | 0.464 | 0.449 | 0.415 | 0.56 | 0.469
1.07 | 1.38 | 1.18 | LNWIYYKDQTG [RS1_Y166] | 2.51 | 1.35 | 2.21 | 2.25 | 1.13 | 1.4 | 1.32 | 1.58 | 1.06 | 0.787 | 1.35 | 2 | 0.888
1.82 | 2.02 | 1.34 | LRWREYQRQDF [PRKRIP1_Y90_R87W_YF] | 4.93 | 2.04 | 6.28 | 4.24 | 3.64 | 2.28 | 1.01 | 1.91 | 2.67 | 1.69 | 2.29 | 2.67 | 1.67
1.31 | 1.17 | 0.58 | LSDVIYVILRK [PMP22_Y153_G150D] | 1.28 | 0.391 | 1.23 | 1.27 | 0.617 | 0.456 | 0.414 | 0.57 | 0.38 | 0.278 | 0.55 | 0.684 | 0.398
1.65 | 0.869 | 0.545 | LSGFGYRLSDQ [PDCD6_Y124] | 0.977 | 0.444 | 1.09 | 1.02 | 0.787 | 0.787 | 0.731 | 0.64 | 0.558 | 0.474 | 0.502 | 0.76 | 0.449
0.801 | 0.746 | 0.653 | LSGVIYVILGK [PMP22_Y153_R157G] | 2.88 | 0.885 | 2.72 | 1.73 | 1.87 | 0.867 | 0.828 | 0.93 | 0.796 | 0.771 | 0.588 | 0.977 | 0.754
